Source: the supplement of paper PMC10567573

B1: NEUROD6 (parent)
chain: YHSPELTTPPGHGTLDNSKSMKPY

Variants of: B1
Experiment: protein stability index of a GFP-peptide fusion (GPS, HEK-293T) (PSI 1-6); higher = more stable
Details: c terminus: a fixed tail appended
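Also: lentivirally expressed fusions sorted by FACS into six bins by GFP to DsRed ratio, PSI derived from sequencing read proportions per bin multiplied by bin number.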

| Variant | protein stability index |
| --- | --- |
| S20W | 1.97 |
| K22R | 2.47 |
| H2I | 2.17 |
| S20H | 1.87 |
| L6S | 3.13 |
| T14K | 2.07 |
| T8N | 2.52 |
| K22T | 2.32 |
| Y1D | 5.05 |
| T8C | 2.01 |
| T14N | 3.02 |
| H12C | 2.25 |
| K22Q | 2.15 |
| G11Q | 2.28 |
| L6N | 3.25 |
| P4H | 2.07 |
| D16A | 1.65 |
| Y24H | 2.45 |
| L15T | 3.01 |
| M21A | 2.16 |
| K22G | 1.75 |
| L6R | 4.02 |
| P23Y | 1.77 |
| N17V | 2.15 |

| Variant | protein stability index |
| --- | --- |
| P10A | 1.81 |
| D16T | 2.05 |
| D16G | 1.56 |
| Y1S | 4.93 |
| K22H | 1.87 |
| S18P | 2.17 |
| G13K | 2.35 |
| M21D | 2.39 |
| S18I | 1.95 |
| Y1T | 4.76 |
| K19W | 1.5 |
| P4R | 2.32 |
| T7P | 3.56 |
| Y24I | 2.21 |
| H12N | 2.49 |
| Y1N | 4.94 |
| Y24T | 2.55 |
| P4E | 3.36 |
| K19C | 2.05 |
| H2T | 3.61 |
| H12S | 1.96 |
| S20I | 1.7 |
| K19T | 2.35 |
| S18V | 2.38 |

| Variant | protein stability index |
| --- | --- |
| S20T | 2.87 |
| M21T | 2.67 |
| P4G | 2.02 |
| G13L | 2.14 |
| K22P | 1.82 |
| K19L | 1.96 |
| L6K | 4.08 |
| L15D | 2.69 |
| E5Q | 2.34 |
| P23Q | 2.08 |
| K22I | 2.41 |
| E5A | 2.71 |
| P23F | 2.33 |
| S20A | 2.04 |
| S3A | 2.15 |
| S18M | 1.76 |
| K22D | 2.55 |
| S20M | 2.43 |
| N17K | 2.14 |
| H12F | 1.97 |
| L6D | 4.05 |
| T7W | 3.05 |
| P23V | 2.18 |
| T14W | 2.37 |

| Variant | protein stability index |
| --- | --- |
| Y1Q | 5.06 |
| L15W | 1.82 |
| G13Q | 2.11 |
| E5L | 1.67 |
| S18T | 2 |
| L6Q | 3.32 |
| G11N | 2.39 |
| G11L | 2.31 |
| H12E | 2.24 |
| D16N | 2.27 |
| T14G | 1.87 |
| T8W | 1.84 |
| P23L | 2.44 |
| Y24W | 1.98 |
| H2Y | 4.04 |
| G13A | 2.28 |
| P9R | 2.29 |
| P9E | 2.58 |
| L15G | 2.24 |
| D16Y | 2.05 |
| P23C | 1.87 |
| D16C | 2.66 |
| P10D | 2.74 |
| P10I | 1.67 |

| Variant | protein stability index |
| --- | --- |
| K22S | 2.26 |
| S18K | 2.43 |
| H2A | 3.41 |
| P4K | 2.18 |
| S3E | 3.81 |
| P4T | 2.08 |
| N17C | 1.69 |
| K19M | 2.37 |
| P10F | 2.03 |
| T14D | 2.27 |
| M21R | 2.23 |
| S20F | 1.9 |
| S18H | 2.04 |
| H2F | 4.01 |
| P9I | 2.35 |
| P9V | 1.95 |
| P23R | 1.99 |
| N17R | 2.01 |
| M21S | 2.18 |
| L15E | 2.12 |
| T8E | 3.34 |
| G13C | 1.99 |
| S18D | 2.06 |
| M21V | 2.42 |

| Variant | protein stability index |
| --- | --- |
| T8K | 2.37 |
| H12V | 2.16 |
| P23H | 2.24 |
| H2L | 3.17 |
| T8L | 2.1 |
| T7E | 4.01 |
| H12R | 2.25 |
| G13Y | 2.07 |
| S20Y | 2.23 |
| P10R | 2.3 |
| L6F | 2.85 |
| T14A | 2.44 |
| P9D | 2.78 |
| L15M | 1.9 |
| M21Y | 1.54 |
| S18Y | 1.94 |
| S20R | 1.4 |
| P23A | 2.36 |
| T7V | 2.49 |
| S3I | 2.89 |
| L6C | 2.81 |
| L15C | 2.1 |
| T7G | 2.97 |
| T14F | 2.07 |

| Variant | protein stability index |
| --- | --- |
| S20K | 1.94 |
| Y1R | 4.99 |
| S3L | 2.19 |
| N17S | 2.3 |
| G11H | 1.99 |
| S3D | 2.82 |
| P4C | 2.38 |
| S20L | 1.79 |
| Y1E | 5.28 |
| M21P | 2.62 |
| M21E | 2.35 |
| S3V | 3.42 |
| G13D | 2.46 |
| K19Q | 2.24 |
| G13R | 1.76 |
| D16I | 1.81 |
| L15N | 2.46 |
| S20C | 1.86 |
| D16K | 1.86 |
| K22E | 2.46 |
| K22L | 2.2 |
| P10V | 2.33 |
| T8V | 2.04 |
